Experimental data from patent US20230143604A1, “QW DOSING OF GIP RECEPTOR AGONIST PEPTIDE COMPOUNDS AND USES THEREOF” (TAKEDA PHARMACEUTICAL COMPANY LIMITED, priority 2020, published 2023).
Starred links: 1 amine or outer side, 2 acyl side, 3 side chain; linkers in the order of their positions; H or OH if unused. Positions of bridges follow the written chain, without caps; N, C: chain ends. Non-standard residues stand in square brackets, D forms with d. Residues, ends and D or L forms follow the SMILES beside them. Chains are numbered I, II in the order given. No end group written: not given here. *: point of attachment. 2OEGgEgE‑C18 diacid = O=C(O)CCCCCCCCCCCCCCCCC(=O)N[C@@H](CCC(=O)N[C@@H](CCC(=O)NCCOCCOCC(=O)NCCOCCOCC(=O)*)C(=O)O)C(=O)O; C18 diacid = O=C(O)CCCCCCCCCCCCCCCCC(=O)*; γGlu = O=C(O)[C@H](CCC(=O)[*:2])N[*:1]; NMeY = CN[C@@H](Cc1ccc(O)cc1)C(=O)O; Aib = CC(C)(N)C(=O)O

What was measured:
physchem = experiment: physchem
Method in brief: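 3 mg of peptide treated with 100 μL portions of 200 mM phosphate buffer pH 7.4, sonicating/vortexing up to 1 min, with further buffer added until fully dissolved. Solubility then quantified by HPLC.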

[1] = biological target: T1, full-length human GIPR with an N-terminal FLAG tag (human, UniProt P48546 22-466); experiment: cell-based or functional assay
T1 sequence (looked up): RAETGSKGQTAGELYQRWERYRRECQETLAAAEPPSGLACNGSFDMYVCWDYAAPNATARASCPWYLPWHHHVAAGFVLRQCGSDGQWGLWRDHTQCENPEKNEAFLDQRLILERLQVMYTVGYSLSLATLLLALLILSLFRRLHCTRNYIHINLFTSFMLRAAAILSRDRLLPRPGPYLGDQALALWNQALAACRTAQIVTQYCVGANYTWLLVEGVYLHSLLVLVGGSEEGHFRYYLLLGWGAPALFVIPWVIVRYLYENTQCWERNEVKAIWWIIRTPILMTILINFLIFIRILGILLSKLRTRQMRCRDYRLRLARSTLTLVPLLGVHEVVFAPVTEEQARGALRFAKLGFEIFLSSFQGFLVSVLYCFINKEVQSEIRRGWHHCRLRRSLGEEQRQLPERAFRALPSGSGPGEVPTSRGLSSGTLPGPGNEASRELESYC

[2] = biological target: full-length human GLP-1R with an N-terminal FLAG tag (human, UniProt P43220 24-463); experiment: cell-based or functional assay
[3] = pH 7.4, aqueous buffer, pH 7.4 Phosphate Buffer - Solubility, 200 mM Phosphate buffer pH 7.4
[4] = pH 7.4, solubility in phosphate buffer at pH 7.4, 200 mM phosphate buffer pH 7.4

Molecule: CC[C@H](C)[C@H](NC(=O)[C@H](CO)NC(=O)[C@H](Cc1ccc(O)cc1)NC(=O)[C@H](CC(=O)O)NC(=O)[C@H](CO)NC(=O)[C@@H](NC(=O)[C@H](Cc1ccccc1)NC(=O)[C@@H](NC(=O)CNC(=O)[C@H](CCC(=O)O)NC(=O)C(C)(C)NC(=O)[C@H](Cc1ccc(O)cc1)NC)[C@@H](C)O)[C@@H](C)CC)C(=O)N[C@@H](C)C(=O)N[C@@H](CCCCNC(=O)CNC(=O)CNC(=O)[C@@H]1CCCN1C(=O)[C@H](C)NC(=O)[C@@H]1CCCN1C(=O)[C@H](C)NC(=O)[C@@H]1CCCN1C(=O)CCCCCCCCCCCCCCCCC(=O)O)C(=O)N[C@@H](CC(=O)O)C(=O)N[C@@H](CCCNC(=N)N)C(=O)NC(C)(C)C(=O)N[C@@H](C)C(=O)N[C@@H](CCC(N)=O)C(=O)NC(C)(C)C(=O)N[C@@H](CC(=O)O)C(=O)N[C@@H](Cc1ccccc1)C(=O)N[C@H](C(=O)N[C@@H](CC(N)=O)C(=O)N[C@@H](Cc1c[nH]c2ccccc12)C(=O)N[C@@H](CC(C)C)C(=O)N[C@@H](CC(C)C)C(=O)N[C@@H](C)C(=O)N[C@@H](CCC(N)=O)C(=O)N[C@@H](CCCCN)C(=O)NCC(=O)O)C(C)C [Compound 289] (I: H-[NMeY][Aib]EGTFISDYSIAKDR[Aib]AQ[Aib]DFVNWLLAQKG-OH / II: {C18 diacid}-PAPAPGG; amide I:14-II:C)
- solubility (physchem; pH 7.4, aqueous buffer): ≥ 10 mg/mL

Molecule: CC[C@H](C)[C@H](NC(=O)[C@H](CO)NC(=O)[C@H](Cc1ccc(O)cc1)NC(=O)[C@H](CC(=O)O)NC(=O)[C@H](CO)NC(=O)[C@@H](NC(=O)[C@H](Cc1ccccc1)NC(=O)[C@@H](NC(=O)CNC(=O)[C@H](CCC(=O)O)NC(=O)C(C)(C)NC(=O)[C@H](Cc1ccc(O)cc1)NC)[C@@H](C)O)[C@@H](C)CC)C(=O)N[C@@H](C)C(=O)N[C@@H](CC(C)C)C(=O)N[C@@H](CC(=O)O)C(=O)N[C@@H](CCCNC(=N)N)C(=O)N[C@@H](CCCCNC(=O)CNC(=O)CNC(=O)CNC(=O)CNC(=O)CNC(=O)CCCCCCCCCCCCCCCCC(=O)O)C(=O)N[C@@H](C)C(=O)N[C@@H](CCC(N)=O)C(=O)NC(C)(C)C(=O)N[C@@H](CC(N)=O)C(=O)N[C@@H](Cc1ccccc1)C(=O)N[C@H](C(=O)N[C@@H](CC(N)=O)C(=O)N[C@@H](Cc1c[nH]c2ccccc12)C(=O)N[C@@H](CC(C)C)C(=O)N[C@@H](CC(C)C)C(=O)N[C@@H](C)C(=O)N[C@@H](CCC(N)=O)C(=O)N[C@@H](CO)C(=O)N1CCC[C@H]1C(=O)NCC(=O)O)C(C)C [Compound 290]
- solubility (physchem; pH 7.4, aqueous buffer): ≥ 7.5 mg/mL

Molecule: CC[C@H](C)[C@H](NC(=O)[C@H](CO)NC(=O)[C@H](Cc1ccc(O)cc1)NC(=O)[C@H](CC(=O)O)NC(=O)[C@H](CO)NC(=O)[C@@H](NC(=O)[C@H](Cc1ccccc1)NC(=O)[C@@H](NC(=O)CNC(=O)[C@H](CCC(=O)O)NC(=O)C(C)(C)NC(=O)[C@@H](N)Cc1ccc(O)cc1)[C@@H](C)O)[C@@H](C)CC)C(=O)N[C@@H](C)C(=O)N[C@@H](CCCCNC(=O)CNC(=O)CNC(=O)CNC(=O)CNC(=O)CNC(=O)CCCCCCCCCCCCCCCCC(=O)O)C(=O)N[C@@H](CC(=O)O)C(=O)N[C@@H](CCCNC(=N)N)C(=O)N[C@@H](C)C(=O)N[C@@H](C)C(=O)N[C@@H](CCC(N)=O)C(=O)NC(C)(C)C(=O)N[C@@H](CC(=O)O)C(=O)N[C@@H](Cc1ccccc1)C(=O)N[C@H](C(=O)N[C@@H](CCC(=O)O)C(=O)N[C@@H](Cc1c[nH]c2ccccc12)C(=O)N[C@@H](CC(C)C)C(=O)N[C@@H](CC(C)C)C(=O)N[C@@H](C)C(=O)N[C@@H](CCC(N)=O)C(=O)N[C@@H](CCCNC(=N)N)C(=O)NCC(=O)O)C(C)C [Compound 291]
- solubility (physchem; pH 7.4, aqueous buffer): < 6 mg/mL

Molecule: CC[C@H](C)[C@H](NC(=O)[C@H](CCCNC(=N)N)NC(=O)[C@H](CC(=O)O)NC(=O)[C@H](CCCCNC(=O)CNC(=O)CNC(=O)CNC(=O)CNC(=O)CNC(=O)CCCCCCCCCCCCCCCCC(=O)O)NC(=O)[C@H](C)NC(=O)[C@@H](NC(=O)[C@H](CO)NC(=O)[C@H](Cc1ccc(O)cc1)NC(=O)[C@H](CC(=O)O)NC(=O)[C@H](CO)NC(=O)[C@@H](NC(=O)[C@H](Cc1ccccc1)NC(=O)[C@@H](NC(=O)CNC(=O)[C@H](CCC(=O)O)NC(=O)C(C)(C)NC(=O)[C@H](Cc1ccc(O)cc1)NC)[C@@H](C)O)[C@@H](C)CC)[C@@H](C)CC)C(=O)N[C@@H](C)C(=O)N[C@@H](CCC(N)=O)C(=O)N[C@@H](CCC(N)=O)C(=O)N[C@@H](CC(N)=O)C(=O)N[C@@H](Cc1ccccc1)C(=O)N[C@H](C(=O)N[C@@H](CC(N)=O)C(=O)N[C@@H](Cc1c[nH]c2ccccc12)C(=O)N[C@@H](CC(C)C)C(=O)N[C@@H](CC(C)C)C(=O)N[C@@H](C)C(=O)N[C@@H](CCC(N)=O)C(=O)N[C@@H](CO)C(=O)N1CCC[C@H]1C(=O)N[C@@H](CO)C(=O)N[C@@H](CO)C(=O)NCC(=O)N[C@@H](C)C(=O)N1CCC[C@H]1C(=O)N1CCC[C@H]1C(=O)N1CCC[C@H]1C(=O)N[C@@H](CO)C(=O)O)C(C)C [Compound 292]
- solubility (physchem; [3]): < 6 mg/mL

Molecule: I: H-[NMeY][Aib]EGTFISDYSIALDR[Aib]AQ[Aib]KFVNWLLAQSPSSGAPPPS-OH / II: {C18 diacid-γGlu}-PAPAPGG (amide I:21-II:C) [Compound 104]
- solubility (physchem; [3]): ≥ 60 mg/mL
- solubility (physchem; [4]): ≥ 15 mg/mL

Molecule: I: H-[NMeY][Aib]EGTFISDYSIALDR[Aib]KQ[Aib]DFVNWLLAQSPSSGAPPPS-OH / II: {C18 diacid}-PAPAPGG (amide I:18-II:C) [Compound 102]
- solubility (physchem; [3]): ≥ 60 mg/mL
- solubility (physchem; [4]): ≥ 15 mg/mL

Molecule: [NMeY][Aib]EGTFISDYSIALDRK(2OEGgE‑C18 diacid)HQQNFVNWLLAQRPSSGAPPPS-NH2 [Compound No. 4]
- Human GIPR cAMP EC50, HEK293T [1]: 0.001 nM
- Human GLP1R cAMP EC50, HEK293T [2]: 38.9 nM

B1: Compound No. 56 (peptide)
peptide: [NMeY][Aib]EGTFISDYSIALDR[Aib]AQ[Aib]DFVNWLLAK(2OEGgEgE‑C18 diacid)RG-OH
modifications: N-terminus assumed
SMILES: CC[C@H](C)[C@H](NC(=O)[C@H](CO)NC(=O)[C@H](Cc1ccc(O)cc1)NC(=O)[C@H](CC(=O)O)NC(=O)[C@H](CO)NC(=O)[C@@H](NC(=O)[C@H](Cc1ccccc1)NC(=O)[C@@H](NC(=O)CNC(=O)[C@H](CCC(=O)O)NC(=O)C(C)(C)NC(=O)[C@H](Cc1ccc(O)cc1)NC)[C@@H](C)O)[C@@H](C)CC)C(=O)N[C@@H](C)C(=O)N[C@@H](CC(C)C)C(=O)N[C@@H](CC(=O)O)C(=O)N[C@@H](CCCNC(=N)N)C(=O)NC(C)(C)C(=O)N[C@@H](C)C(=O)N[C@@H](CCC(N)=O)C(=O)NC(C)(C)C(=O)N[C@@H](CC(=O)O)C(=O)N[C@@H](Cc1ccccc1)C(=O)N[C@H](C(=O)N[C@@H](CC(N)=O)C(=O)N[C@@H](Cc1c[nH]c2ccccc12)C(=O)N[C@@H](CC(C)C)C(=O)N[C@@H](CC(C)C)C(=O)N[C@@H](C)C(=O)N[C@@H](CCCCNC(=O)COCCOCCNC(=O)COCCOCCNC(=O)CC[C@H](NC(=O)CC[C@H](NC(=O)CCCCCCCCCCCCCCCCC(=O)O)C(=O)O)C(=O)O)C(=O)N[C@@H](CCCNC(=N)N)C(=O)NCC(=O)O)C(C)C
- Human GIPR cAMP EC50, HEK293T [1]: 0.0006 nM
- Human GLP1R cAMP EC50, HEK293T [2]: > 1000 nM

Molecule: YXEGTFISDYSIXXDRXAQXDFVNWLLAQRPSSGAPPPS (N-methyl Tyr 1; Aib at 2,13,17,20; Lys(G5-C18 diacid) at 14; C-terminal OH) [Compound No. 54]
- Human GIPR cAMP EC50, HEK293T [1]: 0.0006 nM
- Human GLP1R cAMP EC50, HEK293T [2]: 120 nM

Molecule: YXEGTFISDYSIAXDRXAQXNFVNWLLAQSPSSGAPPPS (N-methyl Tyr 1; Aib at 2,17,20; Lys(G5-C20 diacid) at 14; C-terminal OH) [Compound No. 112]
- Human GIPR cAMP EC50, HEK293T [1]: 0.0003 nM

Molecule: YXEGTFISDYSIAXDRXAQXNFVNWLLAQSPSSGAPPPS (N-methyl Tyr 1; Aib at 2,17,20; Lys(G5-C20 diacid) at 14; C-terminal OH) [Compound No. 40]
- Human GIPR cAMP EC50, HEK293T [1]: 0.0007 nM

B2: Compound No. 55 (peptide)
peptide: [NMeY][Aib]EGTFISDYSIALDR[Aib]AQ[Aib]NFVNWLLAK(2OEGgEgE‑C18 diacid)RG-OH
modifications: N-terminus assumed
SMILES: CC[C@H](C)[C@H](NC(=O)[C@H](CO)NC(=O)[C@H](Cc1ccc(O)cc1)NC(=O)[C@H](CC(=O)O)NC(=O)[C@H](CO)NC(=O)[C@@H](NC(=O)[C@H](Cc1ccccc1)NC(=O)[C@@H](NC(=O)CNC(=O)[C@H](CCC(=O)O)NC(=O)C(C)(C)NC(=O)[C@H](Cc1ccc(O)cc1)NC)[C@@H](C)O)[C@@H](C)CC)C(=O)N[C@@H](C)C(=O)N[C@@H](CC(C)C)C(=O)N[C@@H](CC(=O)O)C(=O)N[C@@H](CCCNC(=N)N)C(=O)NC(C)(C)C(=O)N[C@@H](C)C(=O)N[C@@H](CCC(N)=O)C(=O)NC(C)(C)C(=O)N[C@@H](CC(N)=O)C(=O)N[C@@H](Cc1ccccc1)C(=O)N[C@H](C(=O)N[C@@H](CC(N)=O)C(=O)N[C@@H](Cc1c[nH]c2ccccc12)C(=O)N[C@@H](CC(C)C)C(=O)N[C@@H](CC(C)C)C(=O)N[C@@H](C)C(=O)N[C@@H](CCCCNC(=O)COCCOCCNC(=O)COCCOCCNC(=O)CC[C@H](NC(=O)CC[C@H](NC(=O)CCCCCCCCCCCCCCCCC(=O)O)C(=O)O)C(=O)O)C(=O)N[C@@H](CCCNC(=N)N)C(=O)NCC(=O)O)C(C)C
- Human GIPR cAMP EC50, HEK293T [1]: 0.0009 nM
- Human GLP1R cAMP EC50, HEK293T [2]: 741 nM

Molecule: YXEGTFISDYSIXXDRXAQXDFVNWLLAQSG (N-methyl Tyr 1; Aib at 2,13,17,20; Lys(G5-C18 diacid) at 14; C-terminal OH) [Compound No. 53]
- Human GIPR cAMP EC50, HEK293T [1]: 0.0005 nM
- Human GLP1R cAMP EC50, HEK293T [2]: 47.9 nM
